Series [1] has as its system EETI-II.
For series [2], the target named is T1, hVEGF-A (human, UniProt P15692-4 27-191, limits assumed).
T1 construct: also called human VEGF-A; WT
In words: KDR-VEGF competition ELISA. A general note: ELISA stands for enzyme-linked immunosorbent assay.

Series [3] deals with T2, hVEGF-A (8-109) (human, UniProt P15692 214-315).
T2 sequence (looked up): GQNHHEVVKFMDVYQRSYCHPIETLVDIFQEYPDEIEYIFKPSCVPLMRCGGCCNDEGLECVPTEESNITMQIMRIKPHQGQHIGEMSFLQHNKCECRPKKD
In words: SPR. The procedure: (§1) Depending on the format of the assay either a streptavidin sensor (SA) or a dextran-coated (CM5) sensor was utilized as described below.
(§2) Reaction was then quenched by addition of 10 molar excess of Glycine pH 8.0 and the sample was buffer exchanged into PBS using an Amicon 0.5 mL 3000 MWCO ultra-centrifugal filters (EMD Millipore). The biotinylation state of the protein was verified by LC-MS analysis. Biotinylated VEGF-A was then captured on the surface until a resonance unit (RU) signal of about ˜400. For immobilization of VEGF-A on CM5 sensor, the surface was first activated with a mixture of N-ethyl-N′-(3-dimethylaminopropyl)carbodiimide hydrochloride and N-hydroxysuccinimide (EDC/NHS) according to the supplier instructions. VEGF-A was then diluted into coupling buffer (0.1 M Acetate Buffer, pH 5.0) and injected until the signal reached about ˜400 RU followed by a wash with 1 M ethanolamine pH 8.0 to quench remaining activated sites.
In general terms: SPR reads the build-up and loss of mass on a sensor chip optically.

The target of series [4] is T3, mouse VEGF-A 164 (mouse, UniProt Q00731-2 27-190).
T3 construct: also called mouse 164
T3 sequence (looked up): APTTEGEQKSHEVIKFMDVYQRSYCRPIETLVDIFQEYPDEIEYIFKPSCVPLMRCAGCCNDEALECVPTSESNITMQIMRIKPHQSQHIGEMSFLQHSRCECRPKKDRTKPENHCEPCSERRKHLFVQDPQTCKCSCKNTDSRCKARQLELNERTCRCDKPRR
In words: SPR. As to the method: as §1, §2

Series [5] addresses T4, rabbit VEGF-A (rabbit, UniProt G1T1L9 1-398).
T4 sequence: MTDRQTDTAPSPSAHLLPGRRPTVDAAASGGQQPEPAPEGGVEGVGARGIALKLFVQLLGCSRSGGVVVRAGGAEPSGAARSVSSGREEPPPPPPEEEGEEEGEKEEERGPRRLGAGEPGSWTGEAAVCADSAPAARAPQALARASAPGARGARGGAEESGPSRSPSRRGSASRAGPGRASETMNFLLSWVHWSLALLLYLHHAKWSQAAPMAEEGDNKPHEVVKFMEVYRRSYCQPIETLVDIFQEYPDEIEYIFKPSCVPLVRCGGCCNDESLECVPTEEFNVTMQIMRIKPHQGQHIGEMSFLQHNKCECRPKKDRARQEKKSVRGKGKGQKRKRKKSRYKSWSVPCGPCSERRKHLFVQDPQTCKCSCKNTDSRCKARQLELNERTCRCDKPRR
In words: SPR. The procedure: as §1, §2

The target in series [6] is human VEGF-A 165 (human, UniProt P15692-4 27-191). In words: SPR. As to the method: as §1, §2
The target in series [7] is T5, rat VEGF-A (rat, UniProt P16612-2 27-190, limits assumed).
T5 construct: also called rVEGF
T5 sequence (looked up): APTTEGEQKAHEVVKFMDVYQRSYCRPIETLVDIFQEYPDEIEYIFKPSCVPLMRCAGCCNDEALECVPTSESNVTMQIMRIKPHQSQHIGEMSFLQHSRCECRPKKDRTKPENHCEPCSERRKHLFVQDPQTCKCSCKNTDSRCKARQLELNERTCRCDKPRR
In words: SPR. As to the method: as §1, §2

The target in series [8] is T1, hVEGF-A. Nature of the series: cell-based or functional assay.
Series [9] has as its target T1, hVEGF-A. In words: SPR. The procedure: as §1, §2
In series [10] the target is T1, hVEGF-A. In words: phage competition ELISA, soluble CKP.
For series [11], the target named is T1, hVEGF-A. In words: SPR. The procedure:
as §1, §2
The source holds these as a separate data set.

Series [12] has as its target T6, hVEGF-A Q89A (human, UniProt P15692-4 34-135, Q89A).
T6 construct: position probably counted on the mature protein
T6 sequence (looked up): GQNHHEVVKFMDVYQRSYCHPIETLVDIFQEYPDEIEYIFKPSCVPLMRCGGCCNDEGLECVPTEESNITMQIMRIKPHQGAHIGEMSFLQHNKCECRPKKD
Nature of the series: SPR. As to the method:
as §1, §2

In series [13] the target is T7, hVEGF-A K48A (human, UniProt P15692-4 34-135, K48A).
T7 construct: position probably counted on the mature protein
T7 sequence (looked up): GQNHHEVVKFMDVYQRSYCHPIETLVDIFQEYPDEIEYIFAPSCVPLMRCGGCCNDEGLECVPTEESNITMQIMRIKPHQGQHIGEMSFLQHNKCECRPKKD
In words: SPR. As to the method:
as §1, §2

Series [14] deals with T8, hVEGF-A Y21A (human, UniProt P15692-4 34-135, Y21A).
T8 construct: position probably counted on the mature protein
T8 sequence (looked up): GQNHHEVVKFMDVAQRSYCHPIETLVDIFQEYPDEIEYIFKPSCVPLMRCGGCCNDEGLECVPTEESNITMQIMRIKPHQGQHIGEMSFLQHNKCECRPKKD
Nature of the series: SPR. As to the method:
as §1, §2

Series [15] addresses T1, hVEGF-A. Nature of the series: cell-based or functional assay. This is another data set of the same source.
Series [16] deals with T2, hVEGF-A (8-109). Nature of the series: spot phage ELISA. Summed up:
(§3)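 Phage clones from four selection rounds were grown overnight at 37 °C with M13-KO7 helper phage. Bound phage was detected with anti-M13-HRP and TMB, with binding to BSA alone run in parallel as background.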

Series [17] has as its target T2, hVEGF-A (8-109). In words: phage competition ELISA (clone on phage; the concentration varied on the axis is that of hVEGF (8-109)).
In series [18] the target is T9, hVEGF-A (human), P15692.
T9 chain: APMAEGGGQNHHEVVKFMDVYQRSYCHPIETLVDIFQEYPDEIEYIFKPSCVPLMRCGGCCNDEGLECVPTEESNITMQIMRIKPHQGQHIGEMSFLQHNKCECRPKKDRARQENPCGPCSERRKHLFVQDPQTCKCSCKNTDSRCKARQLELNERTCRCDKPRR
Nature of the series: cell-based or functional assay.

Series [19] addresses T2, hVEGF-A (8-109). Nature of the series: SPR. As to the method: as §1, §2
This is another data set of the same source.

Series [20] concerns the target T1, hVEGF-A. In words: cell-based or functional assay. The source holds these as a separate data set.
Series [21] has as its target T2, hVEGF-A (8-109). In words: spot phage ELISA. An outline of the steps:
as §3
This is another data set of the same source.

The target of series [22] is T10, hVEGF-A (8-109) (human), P15692.
T10 chain: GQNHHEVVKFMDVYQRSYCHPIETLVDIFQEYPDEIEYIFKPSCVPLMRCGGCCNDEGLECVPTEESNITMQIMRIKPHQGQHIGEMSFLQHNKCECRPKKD
Nature of the series: spot phage ELISA. As to conditions: remark: other sources report otherwise.

Series [23] addresses T11, Flt-4 (human, UniProt P35916 25-776, limits assumed).
T11 sequence (looked up): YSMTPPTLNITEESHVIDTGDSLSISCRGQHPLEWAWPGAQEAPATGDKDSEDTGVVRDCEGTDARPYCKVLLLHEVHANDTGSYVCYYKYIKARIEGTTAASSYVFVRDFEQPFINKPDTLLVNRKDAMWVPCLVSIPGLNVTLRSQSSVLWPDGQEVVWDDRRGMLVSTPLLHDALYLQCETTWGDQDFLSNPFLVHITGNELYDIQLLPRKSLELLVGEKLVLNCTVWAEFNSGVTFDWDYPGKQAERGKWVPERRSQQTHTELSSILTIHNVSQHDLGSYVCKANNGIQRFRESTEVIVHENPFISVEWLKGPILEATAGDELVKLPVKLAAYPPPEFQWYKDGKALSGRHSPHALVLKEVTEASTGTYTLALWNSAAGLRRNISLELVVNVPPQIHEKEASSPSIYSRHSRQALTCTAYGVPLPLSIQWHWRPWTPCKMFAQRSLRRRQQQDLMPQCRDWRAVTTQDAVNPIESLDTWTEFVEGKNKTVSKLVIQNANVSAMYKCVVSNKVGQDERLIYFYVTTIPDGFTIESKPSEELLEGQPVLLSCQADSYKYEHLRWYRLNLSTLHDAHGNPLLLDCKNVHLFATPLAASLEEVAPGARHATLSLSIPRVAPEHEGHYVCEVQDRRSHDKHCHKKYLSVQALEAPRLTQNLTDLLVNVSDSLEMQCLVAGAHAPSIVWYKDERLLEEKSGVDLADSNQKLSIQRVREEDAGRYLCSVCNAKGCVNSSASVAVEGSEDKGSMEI
In words: plate ELISA, growth factor coated. As to the method: Binding specificity of each peptide was established by competition ELISA. […] After blocking with block buffer (PBS with 0.5% BSA and 0.05% TWEEN®20) for 2 hours at room temperature, the receptor-Fc fusions or biotinylated receptors were serially diluted using assay buffer (PBS with 0.5% BSA and 0.05% TWEEN®20) and incubated for 1 hour at room temperature. […] Competition ELISA was conducted in an identical fashion as described above except after blocking, a mixture of serially diluted peptide containing a constant concentration of receptor-Fc fusion or biotinylated receptor (concentration of receptor was set to EC₆₀) was added and incubated for 1 hour. All recombinant human proteins and antibodies were purchased from R &D Systems (Minneapolis, Minn.).

Read-outs that look alike come from different tables or passages of the source. Non-standard residues stand in square brackets, D forms with d. No end group written: not given here. Nle = CCCC[C@H](N)C(=O)O

Chain of EETI-II (chain, as listed by the source): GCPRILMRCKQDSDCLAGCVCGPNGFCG

Take trypsin: the “trypsin protease activity, peptide substrate cleavage assay” value in series [1] is “Unlike EETI-II, ... do not inhibit trypsin protease activity”.

What is called IC50 is the midpoint of a concentration-inhibition curve. Low readings indicate greater potency in that assay, high ones weaker potency in that assay. As usually defined, the Kd is a measure of binding affinity in units of concentration. By kon is commonly meant the second-order rate constant of association. A higher kon goes with faster complex formation. As to GCNIMLPFWGCKQDSDCLAGCVCQYYQSCG (designed binder, also called EM54) [VEGF_CKP9.54], the IC50 in series [2] turned out to be 5.8 nM; in [10] it was 450 nM. The Kd in series [3] stood at 176 nM; in series [4] it was 250 nM; in series [5], 133 nM; in [6], 190 nM; in [7] it was 176 nM; in series [9] it was 44 nM. For the same molecule, the Kd in series [11] worked out at 55 nM; in series [12], 1880 nM; in series [13] it was 22 nM; in series [14], 317 nM. In series [3], this molecule registered an on-rate constant (kon) of 1.26e+06 M⁻¹ s⁻¹. The “Cellular IC50” value in [8] and in series [15] was 188 nM in each case. Further, the ELISA in [16] was determined as 2.1. Moreover, the “S/N vs BSA” value in [16] came to 28.4. The “IC50 (read off the curve)” value in [17] was around 4 nM.

In series [18], GCNI[Nle]LPFWGCGRDFECLAGCVCQYYQSCG (designed binder, cysteine pairing not given here) [9.54.90.M5.Nle] showed a Cellular IC50 of 1.95 nM.

For the molecule GCDVMQPYWGCKQDSDCLAGCVCHWYNSCG (designed binder, also called EM63) [VEGF_CKP9.63], the IC50 in series [2] turned out to be 10.8 nM; in [10] it was 146 nM. The Kd in series [3] amounted to 281 nM; in [4] it was 289 nM; in series [5] it was 311 nM; in [6] it was 382 nM; in [7], 524 nM; in series [19] it was 100 nM. Further, the Kd came to 100 nM in series [11], 2000 nM in [12], 28.4 nM in [13] and 585 nM in series [14]. In addition, the “Cellular IC50” value in [8] and in series [15] was 140 nM throughout. Moreover, in series [16], the ELISA stood at 2. The “S/N vs BSA” value in series [16] came out at 29.7.

Consider GCDVMQPYWGCGPDIDCLAGCVCHWYNSCG (designed binder, also called L2.9.63.12) [VEGF_CKP9.63.12], for which, in series [2], the IC50 is 0.7 nM. For the same molecule, the Kd is 3.2 nM in [3]; 13.1 nM in [4]; 2.54 nM in series [5]; 4.32 nM in series [6]; 5.74 nM in series [7]; 1.07 nM in series [11]. In addition, the dissociation constant Kd came to 36.5 nM in series [12], 0.33 nM in [13] and 9.84 nM in series [14]. The “Cellular IC50” value in series [20] and in series [15] was 1.83 nM in each case. In [20], the “FOLD [..] [..] TO VARIANT 9.54.90” value was found to be 0.74 fold. Moreover, in series [21], the ELISA amounted to 2.6. Also, in series [21], the “S/N vs BSA” value is 39.9.

In series [22], GCQRTQPFWGCKQDSDCLAGCVCRWYQSCG (designed binder) [VEGF_CKP9.22] had an ELISA of 1.2 and a S/N vs BSA of 17.2.

B1: VEGF-C (ligand, human, UniProt P49767 103-227, looked up)
chain: TEETIKFAAAHYNTEILKSIDNEWRKTQCMPREVCIDVGKEFGVATNTFFKPPCVSVYRCGGCCNSEGLQCMNTSTSYLSKTLFEITVPLSQGPKPVTISFANHTSCRCMSKLDVYRQVHSIIRR
Consider B1, for which the binding result in [23] is “binds”.

B2: VEGF-D (ligand, human, UniProt O43915 93-201, looked up)
chain: FYDIETLKVIDEEWQRTQCSPRETCVEVASELGKSTNTFFKPPCVNVFRCGGCCNEESLICMNTSTSYISKQLFEISVPLTSVPELVPVKVANHTGCKCLPTAPRHPYS
For B2, in [23], the binding result was “binds”.
